Measured values reported in paper PMC3177148 (Molecular microbiology, 2011).
Positions count from the first letter of the chain named. Numbers in names are those of the source.

Key:
MacB = MacB (Escherichia coli, UniProt P75831); assay: limited proteolysis protection; type: binding; conditions: 1 mM Mg-AMPPNP, loaded on ice, proteolysis at 37°C
cross-linking = molecular target: the molecule itself; assay: cross-linking
[1] = molecular target: T1, MacB with C-terminal 6His tag, purified and reconstituted into proteoliposomes (E. coli, UniProt P75831 1-648); assay: limited proteolysis of proteoliposomes
T1 sequence: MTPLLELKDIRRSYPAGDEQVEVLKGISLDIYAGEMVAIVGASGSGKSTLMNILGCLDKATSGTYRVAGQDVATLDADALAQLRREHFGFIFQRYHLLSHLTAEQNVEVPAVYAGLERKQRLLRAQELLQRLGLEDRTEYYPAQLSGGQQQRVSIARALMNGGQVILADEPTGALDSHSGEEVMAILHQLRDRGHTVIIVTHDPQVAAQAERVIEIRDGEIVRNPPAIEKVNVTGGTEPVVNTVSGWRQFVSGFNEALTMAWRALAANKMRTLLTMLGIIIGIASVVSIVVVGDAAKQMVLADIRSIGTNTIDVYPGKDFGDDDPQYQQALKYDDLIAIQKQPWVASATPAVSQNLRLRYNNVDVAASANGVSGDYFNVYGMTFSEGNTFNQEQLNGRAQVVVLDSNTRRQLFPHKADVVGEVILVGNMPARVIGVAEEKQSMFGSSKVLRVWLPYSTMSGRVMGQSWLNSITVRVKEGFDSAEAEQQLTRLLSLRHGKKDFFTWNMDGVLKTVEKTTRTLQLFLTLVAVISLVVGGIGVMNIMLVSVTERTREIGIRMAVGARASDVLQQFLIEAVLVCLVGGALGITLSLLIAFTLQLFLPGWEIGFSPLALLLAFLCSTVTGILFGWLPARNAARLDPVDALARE

In the case of `Nc1ncnc2c1ncn2[C@@H]1O[C@H](COP(=O)(O)OP(=O)(O)NP(=O)(O)O)[C@@H](O)[C@H]1O` [AMPPNP], the “limited proteolysis protection (proteinase K) in proteoliposomes, anti-MacB immu” value (MacB) is reported as “MacB alone binds ATP and AMPPNP”.

B1: MacA wild type with C-terminal 6His tag, purified (natural protein)
chain: MKKRKTVKKRYVIALVIVIAGLITLWRILNAPVPTYQTLIVRPGDLQQSVLATGKLDALRKVDVGAQVSGQLKTLSVAIGDKVKKDQLLGVIDPEQAENQIKEVEATLMELRAQRQQAEAELKLARVTYSRQQRLAQTKAVSQQDLDTAATEMAVKQAQIGTIDAQIKRNQASLDTAKTNLDYTRIVAPMAGEVTQITTLQGQTVIAAQQAPNILTLADMSAMLVKAQVSEADVIHLKPGQKAWFTVLGDPLTRYEGQIKDVLPTPEKVNDAIFYYARFEVPNPNGLLRLDMTAQVHIQLTDVKNVLTIPLSALGDPVGDNRYKVKLLRNGETREREVTIGARNDTDVEIVKGLEAGDEVVIGEAKPGAAQ
B1: binds (cross-linking); binds [1].

B2: MacA G357A with C-terminal 6His tag, purified (natural protein)
chain: B1 chain with G357A
B2: binds (cross-linking).

B3: MacA G353A with C-terminal 6His tag, purified (natural protein)
chain: B1 chain with G353A
B3: binds (cross-linking).
